Laboratory results: publication doi:10.1101/2024.03.07.583849 (bioRxiv, 2024)
Values joined by “and” are separate entries in the source; they are usually repeats but may differ in a detail not shown here. Equal entries are not always repeated.

Biological target: the molecule itself
Test: SEC

B1: Chlamydomonas reinhardtii alpha-amylase 2 (AMA2), recombinant full-length enzyme (enzyme, UniProt A0A2K3DGK5 1-706, looked up)
chain: MDRSLLSRTSPRMQLGRPQQLPPPTVPLAQVPRLQRRCVVGSRVCQPVVAVRPGRASAGRGGRLVVSSVDMSNSPLSSMDAGEGLDIMFDNNSDAECTVVTVEGKDKAHLLMSLTGGFSSAGLTVISASITSDDGRVLDVFRVQTADGKKVPEEQFPSVREHILSVTATSSRSSMPAIYGIVAAAEVERLKPLRSQSTQNDVDALELAAAEMTQAVAELVATERDIIRMRASNADARTLQTKEANRTEAAAGLERKMAAMQAVLAARRNLATEPEKPKSPTEKLLETLKPPTPMRAAAGAGSGSGSEILLQAFNWESHRQKLYKQLMGRVKDISDAGFTGVWMPPPSDSVSPQGYLPRDLYSLDSAYGSEAELRELIAAFHQNNIKVIADIVVNHRCANSQGSDGKWNKFGGRLAWDASAICSNNPSFGGRGNPKQGDDYAAAPNIDHSQERIRNDIVQWMKYLRNSIGFDGWRFDFVRGYLGSYCKQYIDETVPAMAFGEYWDSCEYTDGVLNYNQDAHRQRTVNWCDSTGGTSAAFDFTTKGILQEAVGRREYWRLVDSQGRPPGVMGMWPSRAITFIDNHDTGSTLNHWPFPSRNLPEGYAYILTHPGTPCVFYDHFYQEENNLRKIILDLLKVRRRNGLNARSKVVMKKSAADVYAAMIDDKVAVKLGPGDWSPNQSGIKVNGKELKVAASGFQFAVWEGQH
Q: For B1, which “stoichiometry N” value is on record?
A: 2 and 4
